Test results taken from the supplement of paper PMC10567573.

B1: RSPH3 (parent)
chain: FIPAKTGKDVATQILEGELFDFDL

Variants of: B1
Test: protein stability index of a GFP-peptide fusion (GPS, HEK-293T) (PSI 1-6); higher = more stable
Conditions: c terminus: a fixed tail appended
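Note: lentivirally expressed fusions sorted by FACS into six bins by GFP to DsRed ratio, PSI derived from sequencing read proportions per bin multiplied by bin number.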

In order of falling protein stability index:
1. FIPAKTGKDVYTQILEGELFDFDL  4.25
2. FIPAKTGKDVATQILFGELFDFDL  3.82
3. FIPAKTGKDVATQILMGELFDFDL  3.38
4. FIPAKTGKWVATQILEGELFDFDL  3.31
5. FIPAKTGKNVATQILEGELFDFDL  3.27
6. FIPAKTGKDVAWQILEGELFDFDL  3.27
7. FIPAKTGKDVAVQILEGELFDFDL  2.98
8. FIPAKTGKDIATQILEGELFDFDL  2.95
9. FIPAKTGKDVATQDLEGELFDFDL  2.94
10. FIPAKTGKDVATCILEGELFDFDL  2.9
11. FIPAKTWKDVATQILEGELFDFDL  2.83
12. FIPAKTPKDVATQILEGELFDFDL  2.82
13. FIPAKTGKDVATQTLEGELFDFDL  2.79
14. FIPAKTGKDVATQIEEGELFDFDL  2.79
15. FIPAKTGKLVATQILEGELFDFDL  2.77
16. FIPAKTGKDWATQILEGELFDFDL  2.75
17. FIPAKTGKDVATQMLEGELFDFDL  2.75
18. FIPAKTGKDVATQIWEGELFDFDL  2.75
19. FIPAKTGKDVATQIREGELFDFDL  2.75
20. FIPAKTGKDVAFQILEGELFDFDL  2.73
21. FIPAKTGKDVATQWLEGELFDFDL  2.71
22. FIPAKTGKDVATGILEGELFDFDL  2.65
23. FIPAKTGKDLATQILEGELFDFDL  2.63
24. FIPAKTGKDVATHILEGELFDFDL  2.62
25. FIPAKTGKFVATQILEGELFDFDL  2.59
26. FIPAKTGCDVATQILEGELFDFDL  2.58
27. FIPAKTGKDVATQIDEGELFDFDL  2.58
28. FIPAKTGKDVATVILEGELFDFDL  2.55
29. FIPAKTGKDVARQILEGELFDFDL  2.55
30. FIPAKTGVDVATQILEGELFDFDL  2.52
31. FIPAKTGKDEATQILEGELFDFDL  2.52
32. FIPAKTGKDVDTQILEGELFDFDL  2.48
33. FIPAKTGKDVATQYLEGELFDFDL  2.47
34. FIPAKTDKDVATQILEGELFDFDL  2.46
35. FIPAKTGLDVATQILEGELFDFDL  2.44
36. FIPAKTGEDVATQILEGELFDFDL  2.43
37. FIPAKTGKCVATQILEGELFDFDL  2.43
38. FIPAKTGKDVATIILEGELFDFDL  2.43
39. FIPAKTGKDVATLILEGELFDFDL  2.38
40. FIPAKTGRDVATQILEGELFDFDL  2.37
41. FIPAKTGKDVETQILEGELFDFDL  2.35
42. FIPAKTGKDVATQILGGELFDFDL  2.34
43. FIPAKTGKDVATQILNGELFDFDL  2.34
44. FIPAKTGKDVATSILEGELFDFDL  2.32
45. FIPAKTGKDVATQILCGELFDFDL  2.32
46. FIPAKTGKVVATQILEGELFDFDL  2.29
47. FIPAKTGKDDATQILEGELFDFDL  2.28
48. FIPAKTGYDVATQILEGELFDFDL  2.27
49. FIPAKTGKDVATQLLEGELFDFDL  2.27
50. FIPAKTGKDVATQILIGELFDFDL  2.24
51. FIPAKTGKDVKTQILEGELFDFDL  2.24
52. FIPAKTGKGVATQILEGELFDFDL  2.23
53. FIPAKTGDDVATQILEGELFDFDL  2.22
54. FIPAKTGKDVATQPLEGELFDFDL  2.21
55. FIPAKTGKDVATQVLEGELFDFDL  2.2
56. FIPAKTGKDVRTQILEGELFDFDL  2.2
57. FIPAKTVKDVATQILEGELFDFDL  2.2
58. FIPAKTGKDVALQILEGELFDFDL  2.18
59. FIPAKTGKDVAAQILEGELFDFDL  2.18
60. FIPAKTGKDVAMQILEGELFDFDL  2.18
61. FIPAKTGKDVATQIFEGELFDFDL  2.18
62. FIPAKTGPDVATQILEGELFDFDL  2.15
63. FIPAKTGADVATQILEGELFDFDL  2.13
64. FIPAKTGKDVFTQILEGELFDFDL  2.13
65. FIPAKTGKDNATQILEGELFDFDL  2.12
66. FIPAKTGKDVATQIHEGELFDFDL  2.12
67. FIPAKTLKDVATQILEGELFDFDL  2.12
68. FIPAKTGKDVATQILKGELFDFDL  2.11
69. FIPAKTGQDVATQILEGELFDFDL  2.1
70. FIPAKTGKDVATYILEGELFDFDL  2.09
71. FIPAKTGKDVATQELEGELFDFDL  2.09
72. FIPAKTGKDTATQILEGELFDFDL  2.08
73. FIPAKTGKDVATDILEGELFDFDL  2.08
74. FIPAKTHKDVATQILEGELFDFDL  2.08
75. FIPAKTSKDVATQILEGELFDFDL  2.08
76. FIPAKTEKDVATQILEGELFDFDL  2.08
77. FIPAKTGKDVATFILEGELFDFDL  2.07
78. FIPAKTGKDVATQALEGELFDFDL  2.07
79. FIPAKTGKDVATQIKEGELFDFDL  2.07
80. FIPAKTGNDVATQILEGELFDFDL  2.06
81. FIPAKTGKYVATQILEGELFDFDL  2.06
82. FIPAKTGKRVATQILEGELFDFDL  2.06
83. FIPAKTGKDVATQHLEGELFDFDL  2.05
84. FIPAKTGKDVAEQILEGELFDFDL  2.04
85. FIPAKTGKDVGTQILEGELFDFDL  2.04
86. FIPAKTGKHVATQILEGELFDFDL  2.03
87. FIPAKTGKDVATQISEGELFDFDL  2.03
88. FIPAKTGKDVATQIMEGELFDFDL  2.03
89. FIPAKTKKDVATQILEGELFDFDL  2.03
90. FIPAKTGKDVACQILEGELFDFDL  2.02
91. FIPAKTGKDVATQIPEGELFDFDL  2.02
92. FIPAKTGKDVATQINEGELFDFDL  2
93. FIPAKTGKDVITQILEGELFDFDL  2
94. FIPAKTGKDVCTQILEGELFDFDL  2
95. FIPAKTGKDYATQILEGELFDFDL  1.99
96. FIPAKTGKDVATTILEGELFDFDL  1.99
97. FIPAKTGKDVATQCLEGELFDFDL  1.99
98. FIPAKTGKDGATQILEGELFDFDL  1.98
99. FIPAKTGKDVATNILEGELFDFDL  1.97
100. FIPAKTQKDVATQILEGELFDFDL  1.97
101. FIPAKTGKDVATQIQEGELFDFDL  1.96
102. FIPAKTIKDVATQILEGELFDFDL  1.96
103. FIPAKTGKDVATPILEGELFDFDL  1.95
104. FIPAKTGKDVATWILEGELFDFDL  1.95
105. FIPAKTGKDVATQIVEGELFDFDL  1.94
106. FIPAKTGKDVVTQILEGELFDFDL  1.94
107. FIPAKTGSDVATQILEGELFDFDL  1.93
108. FIPAKTGKDVAQQILEGELFDFDL  1.92
109. FIPAKTGKDVAYQILEGELFDFDL  1.92
110. FIPAKNGKDVATQILEGELFDFDL  1.91
111. FIPAKTGKDVTTQILEGELFDFDL  1.91
112. FIPAKTGHDVATQILEGELFDFDL  1.9
113. FIPAKTGKDFATQILEGELFDFDL  1.9
114. FIPAKWGKDVATQILEGELFDFDL  1.9
115. FIPAKTGKDVANQILEGELFDFDL  1.89
116. FIPAKTGKDVATQIGEGELFDFDL  1.89
117. FIPAKTYKDVATQILEGELFDFDL  1.88
118. FIPAKTGKDVATQIIEGELFDFDL  1.87
119. FIPAKTGKDVSTQILEGELFDFDL  1.87
120. FIPAKTGKDVATQILDGELFDFDL  1.86
121. FIPAKTGKDVAIQILEGELFDFDL  1.85
122. FIPAKTGKDVATQICEGELFDFDL  1.85
123. FIPAKTNKDVATQILEGELFDFDL  1.85
124. FIPAKTGKDAATQILEGELFDFDL  1.84
125. FIPAKTAKDVATQILEGELFDFDL  1.83
126. FIPAKTGKSVATQILEGELFDFDL  1.82
127. FIPAKTGKDQATQILEGELFDFDL  1.82
128. FIPAKTGKDHATQILEGELFDFDL  1.82
129. FIPAKTGKDVASQILEGELFDFDL  1.82
130. FIPAKTRKDVATQILEGELFDFDL  1.82
131. FIPAKTGKEVATQILEGELFDFDL  1.81
132. FIPAKTGKDVAPQILEGELFDFDL  1.8
133. FIPAKTGKDVHTQILEGELFDFDL  1.8
134. FIPAKTGKDVATQQLEGELFDFDL  1.79
135. FIPAKTCKDVATQILEGELFDFDL  1.79
136. FIPAKTGKPVATQILEGELFDFDL  1.78
137. FIPAKTGKDVATKILEGELFDFDL  1.78
138. FIPAKTGKDVPTQILEGELFDFDL  1.78
139. FIPAKTGKTVATQILEGELFDFDL  1.77
140. FIPAKTTKDVATQILEGELFDFDL  1.77
141. FIPAKTGKDVATQIYEGELFDFDL  1.76
142. FIPAKTGIDVATQILEGELFDFDL  1.74
143. FIPAKTGKDVATQFLEGELFDFDL  1.74
144. FIPAKTGKDVATQIAEGELFDFDL  1.74
145. FIPAKTGKDVATQILLGELFDFDL  1.73
146. FIPAKTGKDVQTQILEGELFDFDL  1.73
147. FIPAKTGKDVATQKLEGELFDFDL  1.72
148. FIPAKTGGDVATQILEGELFDFDL  1.71
149. FIPAKSGKDVATQILEGELFDFDL  1.71
150. FIPAKRGKDVATQILEGELFDFDL  1.71
151. FIPAKTGKDVAGQILEGELFDFDL  1.7
152. FIPAKTGKQVATQILEGELFDFDL  1.68
153. FIPAKTGKDVNTQILEGELFDFDL  1.68
154. FIPAKTGKDCATQILEGELFDFDL  1.67
155. FIPAKTGKDVATMILEGELFDFDL  1.67
156. FIPAKTGKDVATQITEGELFDFDL  1.66
157. FIPAKTGKKVATQILEGELFDFDL  1.65
158. FIPAKTGKDVATEILEGELFDFDL  1.65
159. FIPAKQGKDVATQILEGELFDFDL  1.64
160. FIPAKYGKDVATQILEGELFDFDL  1.64
161. FIPAKTGMDVATQILEGELFDFDL  1.63
162. FIPAKTGKDPATQILEGELFDFDL  1.61
163. FIPAKTGTDVATQILEGELFDFDL  1.6
164. FIPAKVGKDVATQILEGELFDFDL  1.6
165. FIPAKMGKDVATQILEGELFDFDL  1.59
166. FIPAKTGKDRATQILEGELFDFDL  1.58
167. FIPAKTGKDMATQILEGELFDFDL  1.58
168. FIPAKTGKDVATRILEGELFDFDL  1.58
169. FIPAKTGKDVATQNLEGELFDFDL  1.57
170. FIPAKTGKDVADQILEGELFDFDL  1.56
171. FIPAKTGKDVATQRLEGELFDFDL  1.55
172. FIPAKTGKDKATQILEGELFDFDL  1.54
173. FIPAKTGKDVMTQILEGELFDFDL  1.53
174. FIPAKTGKDVAKQILEGELFDFDL  1.49
175. FIPAKTGKDVATQGLEGELFDFDL  1.49
176. FIPAKTGKDVATQILAGELFDFDL  1.46
177. FIPAKTFKDVATQILEGELFDFDL  1.45
178. FIPAKTGKDVATAILEGELFDFDL  1.43
179. FIPAKTGKDVAHQILEGELFDFDL  1.43
180. FIPAKTMKDVATQILEGELFDFDL  1.43
181. FIPAKTGKIVATQILEGELFDFDL  1.42
182. FIPAKPGKDVATQILEGELFDFDL  1.42
183. FIPAKTGKDVATQSLEGELFDFDL  1.41
184. FIPAKTGFDVATQILEGELFDFDL  1.32
185. FIPAKTGKDVATQILHGELFDFDL  1.32
186. FIPAKTGKDSATQILEGELFDFDL  1.29
187. FIPAKTGKDVLTQILEGELFDFDL  1.27
188. FIPAKTGKAVATQILEGELFDFDL  1.25
